# According to US20230348555A1 (H LEE MOFFITT CANCER CENTER AND RESEARCH INSTITUTE, published 2023):
# Assays:
# [1] = molecular target: T1, CD33/Siglec 3 chimeric fusion protein (ectodomain of CD33 fused to the Fc portion of human IgG1, with a … (Homo sapiens; human, UniProt P20138 18-259); assay: immunofluorescence staining of transfected SJCRH30 cells with CD33-fusion and anti-human IgG1-APC (FIG. 3B)
# T1 construct: extracellular domain; also called CD33-fusion; CD33-IgG; not shown: Fc region of human IgG1 (human Fc gamma) from the expression vector; C-terminal recognition site for E. coli biotin ligase
# Protocol: Immunofluorescence was detected using a Zeiss automated upright fluorescence microscope and images captured by a Nikon camera with the Capture Program AxioVision. Detailed methods for immuno-staining on S100A9 transfected SJCRH30 cells have been published previously (Chen, X., et al. 2008. Blood 113(14):3226-34). Specifically, SJCRH30 cells, which lack detectable expression levels of both CD33 and S100A9, were transfected with either S100A9 or S100A8 (negative control) for 48-72 hours. After incubation with CD33-fusion for 30 min (2 μg/ml), 1×10⁴ cells were cytospinned onto slides and then stained with a secondary anti-human IgG1-APC before analysis by immunofluorescence microscopy. Similarly, SJCRH30 cells, stable-transfected with CD33, were incubated with rhS100A9 tagged with DDK for various time points and stained by the same methodology before analysis.
# S100A9 is a native ligand for CD33. […] Therefore, to identify potential ligand(s) for this receptor, a chimeric fusion protein with the ectodomain of CD33 and the Fe portion of human IgG (here on referred to as CD33-fusion) was produced. BM cell lysates from MDS patients were immunoprecipitated with the CD33-fusion followed by high throughput mass-spectrometric analysis on associated peptides. S100A9, an inflammatory signaling molecule known to activate MDSC, was among the most prominent protein bands identified (FIG. 3A). […]
# [2] = molecular target: T1, CD33/Siglec 3 chimeric fusion protein …; assay: immunoprecipitation of BM cell lysates from MDS patients with CD33-fusion, then mass spectrometry (FIG. 3A)
# Excerpt: Therefore, to identify potential ligand(s) for this receptor, a chimeric fusion protein with the ectodomain of CD33 and the Fe portion of human IgG (here on referred to as CD33-fusion) was produced. BM cell lysates from MDS patients were immunoprecipitated with the CD33-fusion followed by high throughput mass-spectrometric analysis on associated peptides. S100A9, an inflammatory signaling molecule known to activate MDSC, was among the most prominent protein bands identified (FIG. 3A). To confirm the specificity of the binding of this DAMP to CD33 both S100A8 and S100A9 transfectants were prepared in the rhabdomyosarcoma cell line SJCRH30, which lacks detectable expression of endogenous CD33, S100A8 or S100A9. […] To validate clinically the ligand specificity in MDS patients, the pull-down was compared with CD33-fusion from healthy PBMC and BM as well as MDS patients. As expected, the highest amount of S100A9 was precipitated from the BM of MDS patient specimens (FIG. 3F). Next, to understand the kinetics of S100A9 and CD33 interactions, SJCRH30 cells were transfected with either vector or CD33 and incubated with recombinant human (rh) S100A9 tagged with DDK ([…] epitope, same epitope as Flag).
# [3] = molecular target: T2, CD33 (Siglec 3) expressed in cells (human, UniProt P20138 18-364); assay: reverse immunoprecipitation: S100A9 IP from CD33/S100A9 co-transfected SJCRH30 lysate, blotted for CD33 (FIG. 3E)
# T2 construct: whole, on cells; In the co-immunoprecipitations it stood in cell lysates; also called SJCRH30-CD33 cells; CD33 on MDS-MDSC
Binder,binding result [1],binding result [2],binding result [3]
"S100A8 (ligand, UniProt P05109 1-93, looked up, also called MRP-8; calgranulin A) MLTELEKALNSIIDVYHKYSLIKGNFHAVYRDDLKKLLETECPQYIRKKGADVWFKELDINTDGAVNFQEFLILVIKMGVAAHKKSHEESHKE",no binding (tested: 2 µg/ml CD33-fusion for 30 min),,
"S100A9 (ligand, human, UniProt P06702 1-114, looked up, One entry covers both the endogenous protein of human specimens and the protein expressed from transfected cDNA; also called MRP-14; calgranulin-B) MTCKMSQLERNIETIINTFHQYSVKLGHPDTLNQGEFKELVRKDLQNFLKKENKNEKVIEHIMEDLDTNADKQLSFEEFIMLMARLTWASHEKMHEGDEGPGHHHKPGLGEGTP",,binds,binds
